# Columns and labels:
# [1] = target: T1, GST-RhoC (wild type) (Homo sapiens (assumed), UniProt P08134); experiment: ELISA; GST proteins loaded with 200 μM GTPγS for 30 min and purified on glutathione ELISA plates; 10^10 clones of C1 phages in each well; anti-M13-HRP, TMB; conditions: one partner purified
# T1 construct: Loaded with GDP or GTPγS as told in each assay; source: E. coli BL21, purified on glutathione-coated plates; not shown: GST, N-terminal, kept
# [2] = target: T2, GST-Rac1 (Homo sapiens (assumed), UniProt P63000); experiment: as above; conditions: one partner purified
# [3] = target: T3, GST-Cdc42 (Homo sapiens (assumed), UniProt P60953); experiment: as above; conditions: one partner purified
# T3 construct: Cdc42, from a pGEX plasmid provided by Dr. A. Blangy; Loaded with GDP, GTP or GTPγS as told in each assay; also called GTP-Cdc42; source: E. coli BL21, purified on glutathione-coated plates
# [4] = target: T4, GST-RhoB (wild type) (Homo sapiens (assumed), UniProt P62745); experiment: as above; conditions: one partner purified
# T4 construct: Loaded with GDP, GTP or GTPγS as told in each assay; The immunoprecipitation speaks only of recombinant RhoB without naming the GST; also called recombinant RhoB; source: E. coli BL21, purified on glutathione-coated plates; crude bacterial lysate (immunoprecipitation); not shown: GST, N-terminal, kept
# [5] = target: T5, GST-RhoAQ63L (UniProt P61586 1-193, Q63L); experiment: ELISA + SPR; competition ELISA on a RhoAQ63L coated plate (scFvC1-N1N2 0.4 μM competed by increasing GST-RBD); KD of GST-RBD also determined by SPR on GST-RhoAQ63L
# T5 construct: GTP-locked mutant; source: E. coli BL21, purified on glutathione-coated plates; not shown: GST, N-terminal, kept
# [6] = target: T2, GST-Rac1; experiment: ELISA; competition ELISA on a RhoAQ63L coated plate: scFvC1-N1N2 (0.4 μM) competed by increasing concentrations of GST-RBD, GDP bound RhoA, GTP bound Cdc42, GTP bound Rac1
# [7] = target: T3, GST-Cdc42; experiment: as above
# [8] = target: T4, GST-RhoB (wild type); experiment: pull-down; scFv C1-N1N2 from crude bacterial extract fixed on Ni-NTA beads; crude bacterial lysate with recombinant RhoA or RhoB loaded with 0.2 mM GTPγS (PBS, 10 mM EDTA, 30 min, 30°C); 45 min at 4°C; blot with anti-RhoA or anti-RhoB; called immunoprecipitation; conditions: one partner purified
# T3 sequence (P60953 whole entry): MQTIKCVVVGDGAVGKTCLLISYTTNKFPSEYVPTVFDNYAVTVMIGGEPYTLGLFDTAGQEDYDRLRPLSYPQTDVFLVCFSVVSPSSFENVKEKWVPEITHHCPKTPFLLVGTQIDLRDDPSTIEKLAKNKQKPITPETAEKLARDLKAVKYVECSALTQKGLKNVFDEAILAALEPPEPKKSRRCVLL
# T4 sequence (P62745 whole entry): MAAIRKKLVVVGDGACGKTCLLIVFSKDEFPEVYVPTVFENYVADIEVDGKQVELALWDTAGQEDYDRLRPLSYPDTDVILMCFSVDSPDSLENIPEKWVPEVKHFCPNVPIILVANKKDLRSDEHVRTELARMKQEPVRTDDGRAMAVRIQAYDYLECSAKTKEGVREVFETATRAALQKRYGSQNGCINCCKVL
# T5 sequence (P61586 whole entry Q63L): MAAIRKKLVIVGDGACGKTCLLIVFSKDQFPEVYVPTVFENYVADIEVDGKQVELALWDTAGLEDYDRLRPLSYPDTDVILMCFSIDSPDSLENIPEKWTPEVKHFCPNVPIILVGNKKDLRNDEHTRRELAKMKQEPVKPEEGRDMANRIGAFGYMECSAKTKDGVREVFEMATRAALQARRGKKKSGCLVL
# T1 sequence (P08134 whole entry): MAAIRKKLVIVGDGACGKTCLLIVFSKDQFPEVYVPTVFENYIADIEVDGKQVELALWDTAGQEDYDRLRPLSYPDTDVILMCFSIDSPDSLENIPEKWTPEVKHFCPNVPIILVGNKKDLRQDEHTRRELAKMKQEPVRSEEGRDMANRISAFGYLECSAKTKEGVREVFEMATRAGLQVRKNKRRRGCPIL
binder,measurement,setting,value
"C1 phage (scFv C1-pIII fusion protein displayed on phage) (scFv, V domains shown, VH of scFv C1 (human synthetic, Griffin.1 library); linker between VH and VL of the Griffin.1 library vector pHEN2; VL of scFv C1 (human synthetic, Griffin.1 library); source: monoclonal phage from E. coli supernatant (Griffin.1 library, phagemid pHEN2); not shown: 6xHis, C-terminal, kept; myc, C-terminal, kept) VH: not shown VL: SSELTQDPAVSVALGQTVRITCQGDSLRSYYASWYQQKPGQAPVLVIYGKNNRPSGIPDRFSGSSSGNTASLTITGAQAEDEADYYCNSRDSSGNHAYVFGGGTKLTVL",binding result,[1],binds
same,binding result,[2],no binding (tested: 10^10 clones of C1 phages)
same,binding result,[3],no binding (tested: 10^10 clones of C1 phages)
same,binding result,[4],binds
GST-RBD (Rho binding domain of Rhotekin fused to GST) (domain or fragment) ILEDLNMLYIRQMALSLEDTELQRKLDHEIRMRDGACKLLAACSQREQALEATKSLLVCNSRILSYMGELQRRKEAQVLEKTG,Kd,[5],0.2 ± 0.2 µM
"scFv C1-N1N2 (scFv, V domains shown, VH of scFv C1, as in m1; linker between VH and VL of the vector pHEN2, as in m1; VL of scFv C1, as in m1; N-terminal portions N1 and N2 of the phage coat protein pIII of M13 (vector pHEN2); the C-terminal portion of pIII removed; The amber codon between the tags and gene III was mutated so that translation runs into pIII; an EcoRI site was put in after N2; Predicted mass 60 kDa; Smaller proteins …) VH: not shown VL: SSELTQDPAVSVALGQTVRITCQGDSLRSYYASWYQQKPGQAPVLVIYGKNNRPSGIPDRFSGSSSGNTASLTITGAQAEDEADYYCNSRDSSGNHAYVFGGGTKLTVL",Kd,[6],> 50 µM
same,binding result,[6],no binding (tested: > 50 μM)
same,Kd,[7],> 50 µM
same,binding result,[7],no binding (tested: > 50 μM)
same,binding result,[8],binds

# From paper PMC2323369, “Identification of a GTP-bound Rho specific scFv molecular sensor by phage display selection” (BMC Biotechnology, 2008)
